In US20190040149A1 (Innovent, published 2019):

T1: murine PD-1 on CHO cells (mouse, UniProt Q02242 25-288)
T1 sequence: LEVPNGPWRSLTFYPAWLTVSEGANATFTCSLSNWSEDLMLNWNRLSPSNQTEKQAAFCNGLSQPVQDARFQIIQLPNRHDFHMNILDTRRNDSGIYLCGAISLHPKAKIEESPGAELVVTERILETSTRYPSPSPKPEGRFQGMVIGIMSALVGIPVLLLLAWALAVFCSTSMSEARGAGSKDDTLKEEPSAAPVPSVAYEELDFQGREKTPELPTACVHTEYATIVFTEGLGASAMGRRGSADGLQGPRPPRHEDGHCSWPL

T2: murine PD-1 (soluble antigen of the MSD assay) (mouse, UniProt Q02242 25-169, limits assumed)
T2 construct: also called mouse PD-1
T2 sequence: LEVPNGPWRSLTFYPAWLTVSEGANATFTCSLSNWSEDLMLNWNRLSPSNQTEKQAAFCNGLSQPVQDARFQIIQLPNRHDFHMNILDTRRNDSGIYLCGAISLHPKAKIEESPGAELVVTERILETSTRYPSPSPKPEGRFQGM

T3: murine PD-1_Fc (mouse, UniProt Q02242 25-167, limits assumed)
T3 construct: not shown: Fc part
T3 sequence: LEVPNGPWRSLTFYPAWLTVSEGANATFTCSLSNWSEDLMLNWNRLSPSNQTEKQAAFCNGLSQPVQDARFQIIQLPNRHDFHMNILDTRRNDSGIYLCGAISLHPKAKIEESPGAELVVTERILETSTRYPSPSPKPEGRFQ


Assays:
[1] = target: T4, human PD-1_HIS (human, UniProt Q15116 25-167, limits assumed); experiment: bio-layer interferometry (ForteBio), human PD-1_HIS in solution, IgG on sensor tip
T4 construct: not shown: His tag
T4 sequence (Q15116 25-167 limits assumed): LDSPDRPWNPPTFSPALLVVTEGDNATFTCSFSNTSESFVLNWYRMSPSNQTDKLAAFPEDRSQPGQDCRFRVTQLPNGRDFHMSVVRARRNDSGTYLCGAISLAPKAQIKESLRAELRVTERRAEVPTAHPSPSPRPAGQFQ
Procedure: Briefly, ForteBio affinity measurements were performed by loading IgGs online onto AHQ sensors. Sensors were equilibrated off-line in assay buffer for 30 min and then monitored on-line for 60 seconds for baseline establishment. Sensors with loaded IgGs were exposed to 100 nM antigen for 5 min, afterwards they were transferred to assay buffer for 5 min for off-rate measurement. Kinetics was analyzed using the 1:1 binding model.

[2] = target: T1, murine PD-1 on CHO cells; experiment: flow cytometry on CHO cells with murine PD-1
Procedure: Cells are then washed 3×, and are incubated with a secondary antibody (PE-labelled, at final concentration of 5 μg/ml) in PBS 1% BSA for 30 min on ice (protected from light). Cells are washed 3× and analyzed via flow cytometry. Flow cytometry is performed on an Accuri C6 system (BD Biosciences) and MFIs are calculated on the C6 software. EC50 s are calculated on Graphpad software.

[3] = target: T5, human PD-1 (soluble antigen of the MSD assay, b-PD-1 monomer) (human, UniProt Q15116 25-170, limits assumed, biotinylated (b-PD-1), site not stated); experiment: MSD solution equilibrium titration, avid KD
T5 construct: The antigen format of the 'avid' measurement is not described
T5 sequence (Q15116 25-170 limits assumed): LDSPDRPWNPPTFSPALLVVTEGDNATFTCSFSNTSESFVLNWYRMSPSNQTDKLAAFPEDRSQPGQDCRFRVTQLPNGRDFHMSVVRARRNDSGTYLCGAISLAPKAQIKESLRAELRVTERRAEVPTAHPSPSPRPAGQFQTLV
Procedure: (§1) Equilibrium affinity measurements are performed as previously described (Estep, P., et al., MAbs, 2013. 5(2): p. 270-8). Solution equilibrium titrations (SET) are performed in PBS+0.1% IgG-Free BSA (PBSF) where antigen (b-PD-1 monomer) is held constant at 10-100 pM and is incubated with 3- to 5-fold serial dilutions of Fab or mAbs starting at 5-100 nM (experimental condition is sample dependent). Antibodies diluted at 20 nM in PBS are coated onto standard bind MSD-ECL plates overnight at 4° C. or at room temperature for 30 min. Plates are blocked with BSA for 30 min whilst shaking at 700 rpm. Plates are then washed 3× with wash buffer (PBSF+0.05% Tween 20). SET samples are applied and incubated on the plates for 150 s with shaking at 700 rpm followed by one wash. Antigen captured on a plate is detected with 250 ng/mL sulfotag-labeled streptavidin in PBSF by incubation on the plate for 3 min. The plates are washed three times with wash buffer and are then read on the MSD Sector Imager 2400 instrument using 1× Read Buffer T with surfactant. The percent free antigen is plotted as a function of titrated antibody in Prism and fit to a quadratic equation to extract the KD. To improve throughput, liquid handling robots are used throughout MSD-SET experiments, including for SET sample preparation.

[4] = target: T2, murine PD-1 (soluble antigen of the MSD …); experiment: MSD solution equilibrium titration, monovalent KD
Procedure: as §1

[5] = target: T5, human PD-1 (soluble antigen of the MSD …); experiment: MSD solution equilibrium titration, monovalent KD
Procedure: as §1

[6] = target: T3, murine PD-1_Fc; experiment: bio-layer interferometry (ForteBio), Fab in solution, murine PD-1_Fc on sensor tip
[7] = target: T6, human PD-1_Fc (human, UniProt Q15116 25-167, limits assumed); experiment: bio-layer interferometry (ForteBio), Fab in solution, human PD-1_Fc on sensor tip
T6 construct: not shown: Fc part
T6 sequence (Q15116 25-167 limits assumed): as the sequence (Q15116 25-167 limits assumed) above

[8] = target: cyno PD-1_Fc (cyno); experiment: bio-layer interferometry (ForteBio), Fab in solution, cyno PD-1_Fc on sensor tip
[9] = target: T2, murine PD-1 (soluble antigen of the MSD …); experiment: MSD solution equilibrium titration, avid KD
Procedure: as §1

Binder	Kd [1] [nM]	EC50 [2] [nM]	Kd [3] [nM]	Kd [4] [nM]	Kd [5] [nM]	Kd [6] [nM]	Kd [7] [nM]	Kd [8] [nM]	Kd [9] [nM]
Antibody D, IgG1 format expressed in yeast (antibody, V domains shown, Tested in IgG1 format, expressed in yeast) VH: QVQLVQSGAEVKKPGASVKVSCKASGYTFEKYYMHWVRQAPGQGLEWMGIINPDGGSTGYAQKFQGRVTMTRDTSTSTVYMELSSLRSEDTAVYYCAKEGVADGYGLVDVWGQGTMVTVSS VL: EIVLTQSPATLSLSPGERATLSCRASQSVSSYLAWYQQKPGQAPRLLIYDASKRATGIPARFSGSGSGTDFTLTISSLEPEDFAVYYCDQRNNWPLTFGGGTKVEIK	1.9	9.26	0.035	2.3	0.3	–	–	–	–
Fab of Antibody C (Fab, V domains shown, Fab in solution in BLI; also called Antibody C (Fab in solution)) VH: QVQLVQSGAEVKKPGASVKVSCKASGYTFTAQYMHWVRQAPGQGLEWMGIINPSGGETGYAQKFQGRVTMTRDTSTSTVYMELSSLRSEDTAVYYCAKEGVADGYGLVDVWGQGTMVTVSS VL: EIVLTQSPATLSLSPGERATLSCRASQSVSSYLAWYQQKPGQAPRLLIYDASKRATGIPARFSGSGSGTDFTLTISSLEPEDFAVYYCDQRNNWPLTFGGGTKVEIK	–	–	–	–	–	10	2	2.4	–
Fab of Antibody D (Fab, V domains shown, Fab in solution in BLI; also called Antibody D (Fab in solution)) VH: QVQLVQSGAEVKKPGASVKVSCKASGYTFEKYYMHWVRQAPGQGLEWMGIINPDGGSTGYAQKFQGRVTMTRDTSTSTVYMELSSLRSEDTAVYYCAKEGVADGYGLVDVWGQGTMVTVSS VL: EIVLTQSPATLSLSPGERATLSCRASQSVSSYLAWYQQKPGQAPRLLIYDASKRATGIPARFSGSGSGTDFTLTISSLEPEDFAVYYCDQRNNWPLTFGGGTKVEIK	–	–	–	–	–	7.8	3.4	4.4	–
Fab of Antibody F (Fab, V domains shown, Fab in solution in BLI; also called Antibody F (Fab in solution)) VH: QVQLVQSGAEVKKPGASVKVSCKASGYTFSAYYMHWVRQAPGQGLEWMGIINPDGGSTGYAQKFQGRVTMTRDTSTSTVYMELSSLRSEDTAVYYCAKEGVADGYGLVDVWGQGTMVTVSS VL: EIVLTQSPATLSLSPGERATLSCRASQSVSSYLAWYQQKPGQAPRLLIYDASKRATGIPARFSGSGSGTDFTLTISSLEPEDFAVYYCDQRNNWPLTFGGGTKVEIK	–	–	–	–	–	6.1	3	3.6	–
Antibody B, IgG1 format expressed in yeast (antibody, V domains shown, Tested in IgG1 format, expressed in yeast) VH: QVQLVQSGAEVKKPGASVKVSCKASGYTFEGYYMHWVRQAPGQGLEWMGIINPEGGETSYAQKFQGRVTMTRDTSISTAYMELSRLRSDDTAVYYCAKEGVADGYGLVDVWGQGTMVTVSS VL: EIVLTQSPATLSLSPGERATLSCRASQSVSSYLAWYQQKPGQAPRLLIYDASKRATGIPARFSGSGSGTDFTLTISSLEPEDFAVYYCDQRNNWPLTFGGGTKVEIK	1.4	6.13	0.014	2.7	0.13	–	–	–	0.38
Fab of Antibody A (Fab, V domains shown, Fab used in solution in the bio-layer interferometry columns 'Fab in solution'; also called Antibody A (Fab in solution)) VH: QVQLVQSGAEVKKPGASVKVSCKASGYTFTSYYMHWVRQAPGQGLEWMGIINPSGGSTSYAQKFQGRVTMTRDTSTSTVYMELSSLRSEDTAVYYCAKEGVADGYGLVDVWGQGTMVTISS VL: EIVLTQSPATLSLSPGERATLSCRASQSVSSYLAWYQQKPGQAPRLLIYDASKRATGIPARFSGSGSGTDFTLTISSLEPEDFAVYYCDQRNNWPLTFGGGTKVEIK	–	–	–	–	–	33	16	14	–
Fab of Antibody B (Fab, V domains shown, Fab in solution in BLI; also called Antibody B (Fab in solution)) VH: QVQLVQSGAEVKKPGASVKVSCKASGYTFEGYYMHWVRQAPGQGLEWMGIINPEGGETSYAQKFQGRVTMTRDTSISTAYMELSRLRSDDTAVYYCAKEGVADGYGLVDVWGQGTMVTVSS VL: EIVLTQSPATLSLSPGERATLSCRASQSVSSYLAWYQQKPGQAPRLLIYDASKRATGIPARFSGSGSGTDFTLTISSLEPEDFAVYYCDQRNNWPLTFGGGTKVEIK	–	–	–	–	–	17	2.7	3.7	–
Fab of Antibody E (Fab, V domains shown, Fab in solution in BLI; also called Antibody E (Fab in solution)) VH: QVQLVQSGAEVKKPGASVKVSCKASGYTFTSNYMHWVRQAPGQGLEWMGIINPSEGSTGYAQKFQGRVTMTRDTSTSTVYMELSSLRSEDTAVYYCAKEGVADGYGLVDVWGQGTMVTVSS VL: EIVLTQSPATLSLSPGERATLSCRASQSVSSYLAWYQQKPGQAPRLLIYDASKRATGIPARFSGSGSGTDFTLTISSLEPEDFAVYYCDQRNNWPLTFGGGTKVEIK	–	–	–	–	–	7.6	2.7	3.3	–
Antibody F, IgG1 format expressed in yeast (antibody, V domains shown, Tested in IgG1 format, expressed in yeast) VH: QVQLVQSGAEVKKPGASVKVSCKASGYTFSAYYMHWVRQAPGQGLEWMGIINPDGGSTGYAQKFQGRVTMTRDTSTSTVYMELSSLRSEDTAVYYCAKEGVADGYGLVDVWGQGTMVTVSS VL: EIVLTQSPATLSLSPGERATLSCRASQSVSSYLAWYQQKPGQAPRLLIYDASKRATGIPARFSGSGSGTDFTLTISSLEPEDFAVYYCDQRNNWPLTFGGGTKVEIK	1.6	5.86	0.018	1.2	0.17	–	–	–	0.44
